Test results reported in US20250387474A1 (MEDICENNA THERAPEUTICS, published 2025).
Each block holds one binder with its values, some of them ahead of it.

Molecular target: T1, MDNA132LR-Fc (1:1 KIH) (Homo sapiens (Human), UniProt P0DOX5 223-448 = IgG part)
T1 construct: also called MDNA132^L39/R111-Fc (1:1 KIH); MDNA132-Fc
Experiment: SPR, construct captured on anti-human IgG (Fc) antibody on a CM5 chip, human receptor as analyte

Kd: 3.6 nM
B1: human IL-13Rα2 (receptor, UniProt Q14627 27-343, looked up)
chain: DTEIKVNPPQDFEIVDPGYLGYLYLQWQPPLSLDHFKECTVEYELKYRNIGSETWKTIITKNLHYKDGFDLNKGIEAKIHTLLPWQCTNGSEVQSSWAETTYWISPQGIPETKVQDMDCVYYNWQYLLCSWKPGIGVLLDTNYNLFYWYEGLDHALQCVDYIKADGQNIGCRFPYLEASDYKDFYICVNGSSENKPIRSSYFTFQLQNIVKPLPPVYLTFTRESSCEIKLKWSIPLGPIPARCFDYEIEIREDDTTLVTATVENETYTLKTTNETRQLCFVVRSKVNIYCSDDGIWSEWSDKQCWEGEDLSKKTLLR
notes: also called Human IL-13 R alpha 2 Protein; IL-13 decoy receptor

binding result: no binding (tested: 1000 nM)
B2: human IL-13Rα1 (receptor)
chain: GGGGAAPTETQPPVTNLSVSVENLCTVIWTWNPPEGASSNCSLWYFSHFGDKQDKKIAPETRRSIEVPLNERICLQVGSQCSTNESEKPSILVEKCISPPEGDPESAVTELQCIWHNLSYMKCSWLPGRNTSPDTNYTLYYWHRSLEKIHQCENIFREGQYFGCSFDLTKVKDSSFEQHSVQIMVKDNAGKIKPSFNIVPLTSRVKPDPPHIKNLSFHNDDLYVQWENPQNFISRCLFYEVEVNNSQTETHNVFYVQEAKCENPEFERNVENTSCFMVPGVLPDTLNTVRIRVKTNKLCYEDDKLWSNWSQEMSIGKKRNST
notes: also called Human IL-13 R alpha 1 Protein; IL-13 functional receptor
